Patent US20180155451A1 (published 2018)

T1: FcgRIIb (human, UniProt P31994 43-217)
T1 construct: extracellular domain; also called FcγRIIb; not shown: His tag attached to the C terminus
T1 sequence (looked up): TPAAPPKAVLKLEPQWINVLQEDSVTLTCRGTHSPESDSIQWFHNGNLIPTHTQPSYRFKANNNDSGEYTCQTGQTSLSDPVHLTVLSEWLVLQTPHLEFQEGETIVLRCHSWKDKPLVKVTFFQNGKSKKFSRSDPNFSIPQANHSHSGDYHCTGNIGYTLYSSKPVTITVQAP

T2: FcgRIIa H (human, UniProt P12318 34-217)
T2 construct: extracellular domain; also called FcγRIIa H; FcγRIIa type H; not shown: His tag attached to the C terminus
T2 sequence (looked up): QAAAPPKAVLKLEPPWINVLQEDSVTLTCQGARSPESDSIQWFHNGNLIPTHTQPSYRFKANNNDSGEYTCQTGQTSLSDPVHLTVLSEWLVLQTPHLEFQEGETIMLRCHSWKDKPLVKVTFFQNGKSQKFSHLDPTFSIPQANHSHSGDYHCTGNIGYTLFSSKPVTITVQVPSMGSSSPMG

T3: FcgRIIa R (human, UniProt P12318 34-217)
T3 construct: extracellular domain; also called FcγRIIa R; FcγRIIa type R; not shown: His tag attached to the C terminus
T3 sequence (looked up): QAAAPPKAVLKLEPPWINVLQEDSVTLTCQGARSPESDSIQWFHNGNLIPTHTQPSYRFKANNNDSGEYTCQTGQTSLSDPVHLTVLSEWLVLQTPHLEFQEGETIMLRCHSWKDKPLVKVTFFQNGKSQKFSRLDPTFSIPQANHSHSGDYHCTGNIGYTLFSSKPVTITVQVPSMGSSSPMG


Tests used:
Assay in all cases: SPR (Biacore); KD of H240-Kn061/H240-Hl071/L73-k0 divided by KD of the variant
FcgRIIb = target: T1, FcgRIIb
Procedure: (§1) The antibodies were assessed for the binding to each FcgR. […] The resultant value was defined as relative KD, and used as an assessment indicator.
(§2) Analysis of interaction between obj ective antibody and the FcγR was carried out using Biacore T100 (GE Healthcare), Biacore T200, Biacore A100, and Biacore 4000. HBS-EP+ (GE Healthcare) was used as the running buffer, and the measurement temperature was set to 25° C. Chips produced by immobilizing the antigen peptide by the amine coupling method to a Series S sensor Chip CM5 (GE Healthcare), chips produced by allowing preliminarily biotinylated antigen peptides to interact with and immobilize onto a Series S Sensor Chip SA (certified) (GE Healthcare), chips produced by immobilizing Protein L (ACTIGEN, BioVision) to Series S Sencor Chip CM5 (GE Healthcare), or chips produced by immobilizing Protein A/G (Thermo Scientific) to Series S Sencor Chip CM5 (GE Healthcare) were used. Antibodies of interest were captured onto these chips, and allowed to interact to each FcγR diluted with running buffer.

FcgRIIIa F = target: T4, FcgRIIIa F (human, UniProt P08637 17-208)
T4 construct: extracellular domain; also called FcγRIIIa F; 3aF; not shown: His tag attached to the C terminus
T4 sequence (P08637 17-208): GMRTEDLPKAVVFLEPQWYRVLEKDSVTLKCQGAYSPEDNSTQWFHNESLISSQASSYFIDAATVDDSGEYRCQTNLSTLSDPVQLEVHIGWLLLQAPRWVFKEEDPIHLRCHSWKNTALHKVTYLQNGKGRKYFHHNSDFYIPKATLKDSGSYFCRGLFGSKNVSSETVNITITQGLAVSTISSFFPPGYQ
Procedure: as §1, §2

FcgRIIIa V = target: T5, FcgRIIIa V (human, UniProt P08637 17-208)
T5 construct: extracellular domain; also called FcγRIIIa V; not shown: His tag attached to the C terminus
T5 sequence (P08637 17-208 F176V limits assumed): as the sequence (P08637 17-208) above, with F160V counted along it
Procedure: as §1, §2

FcgRIIa H = target: T2, FcgRIIa H
Procedure: as §1, §2

FcgRIIa R = target: T3, FcgRIIa R
Procedure: as §1, §2

Row | Binder | Relative KD (FcgRIIb) | Relative KD (FcgRIIIa F) | Relative KD (FcgRIIIa V) | Relative KD (FcgRIIa H) | Relative KD (FcgRIIa R)
1 | H240-Kn061 (Y234L)/H240-Hl071/L73-k0 (antibody, human IgG1, kappa) heavy 1: QDQLVQSGAEVKKPGASVKVSCKASGFNIKDTYIQWVRQAPGQGLEWMGRIDPLRKQTKYREKFEGRVTITADTSTNTAYMELSSLRSEDTAVYYCVRSGREFDYWGQGTLVTVSSASTKGPSVFPLAPSSKSTSGGTAALGCLVKDYFPEPVTVSWNSGALTSGVHTFPAVLQSSGLYSLSSVVTVPSSSLGTQTYICNVNHKPSNTKVDKKVEPKSCDKTHTCPPCPAPELYWGPSVFLFPPKPKDTLMISRTPEVTCVVVDVSDEDPEVKFNWYVDGVEVHNAKTKPREEQYNATYRVVSVLTVLHQDWLNGKEYKCKVSNKALPAPIEKTISKAKGQPREPQVCTLPPSRDELTKNQVSLWCLVKGFYPSDIAVEWESNGQPENNYKTTPPVLDSDGSFFLYSKLTVDKSRWQQGNVFSCSVMHEALHNHYTQKSLSLSP heavy 2: QDQLVQSGAEVKKPGASVKVSCKASGFNIKDTYIQWVRQAPGQGLEWMGRIDPLRKQTKYREKFEGRVTITADTSTNTAYMELSSLRSEDTAVYYCVRSGREFDYWGQGTLVTVSSASTKGPSVFPLAPSSKSTSGGTAALGCLVKDYFPEPVTVSWNSGALTSGVHTFPAVLQSSGLYSLSSVVTVPSSSLGTQTYICNVNHKPSNTKVDKKVEPKSCDKTHTCPPCPAPELLGGPSVFLFPPKPKDTLMISRTPEVTCVVVDVSHEDPEVKFNWYVDGVEVHNAKTKPREEQYNSTYRVVSVLTVLHQDWLNGKEYKCKVSNDALPMPIEETISKAKGQPREPQVYTLPPSRCELTKNQVSLSCAVKGFYPSDIAVEWESNGQPENNYKTTPPVLDSDGSFFLVSKLTVDKSRWQQGNVFSCSVMHEALHNHYTQKSLSLSP light: DIQMTQSPSSLSASVGDRVTITCRASQDIHKYIAWYQQKPGQAPRLLIQYTSTLQPGVPSRFSGSGSGTDYTFTISSLQPEDIATYYCLQYEQLRTFGGGTKVEIKRTVAAPSVFIFPPSDEQLKSGTASVVCLLNNFYPREAKVQWKVDNALQSGNSQESVTEQDSKDSTYSLSSTLTLSKADYEKHKVYACEVTHQGLSSPVTKSFNRGEC | 3.5 | 1.1 | 1.2 | 1.5 | 2.2
2 | H240-Kn061/H240-Hl071 (V240H)/L73-k0 (antibody, human IgG1, kappa) heavy 1: QDQLVQSGAEVKKPGASVKVSCKASGFNIKDTYIQWVRQAPGQGLEWMGRIDPLRKQTKYREKFEGRVTITADTSTNTAYMELSSLRSEDTAVYYCVRSGREFDYWGQGTLVTVSSASTKGPSVFPLAPSSKSTSGGTAALGCLVKDYFPEPVTVSWNSGALTSGVHTFPAVLQSSGLYSLSSVVTVPSSSLGTQTYICNVNHKPSNTKVDKKVEPKSCDKTHTCPPCPAPEYYWGPSVFLFPPKPKDTLMISRTPEVTCVVVDVSDEDPEVKFNWYVDGVEVHNAKTKPREEQYNATYRVVSVLTVLHQDWLNGKEYKCKVSNKALPAPIEKTISKAKGQPREPQVCTLPPSRDELTKNQVSLWCLVKGFYPSDIAVEWESNGQPENNYKTTPPVLDSDGSFFLYSKLTVDKSRWQQGNVFSCSVMHEALHNHYTQKSLSLSP heavy 2: QDQLVQSGAEVKKPGASVKVSCKASGFNIKDTYIQWVRQAPGQGLEWMGRIDPLRKQTKYREKFEGRVTITADTSTNTAYMELSSLRSEDTAVYYCVRSGREFDYWGQGTLVTVSSASTKGPSVFPLAPSSKSTSGGTAALGCLVKDYFPEPVTVSWNSGALTSGVHTFPAVLQSSGLYSLSSVVTVPSSSLGTQTYICNVNHKPSNTKVDKKVEPKSCDKTHTCPPCPAPELLGGPSHFLFPPKPKDTLMISRTPEVTCVVVDVSHEDPEVKFNWYVDGVEVHNAKTKPREEQYNSTYRVVSVLTVLHQDWLNGKEYKCKVSNDALPMPIEETISKAKGQPREPQVYTLPPSRCELTKNQVSLSCAVKGFYPSDIAVEWESNGQPENNYKTTPPVLDSDGSFFLVSKLTVDKSRWQQGNVFSCSVMHEALHNHYTQKSLSLSP light: DIQMTQSPSSLSASVGDRVTITCRASQDIHKYIAWYQQKPGQAPRLLIQYTSTLQPGVPSRFSGSGSGTDYTFTISSLQPEDIATYYCLQYEQLRTFGGGTKVEIKRTVAAPSVFIFPPSDEQLKSGTASVVCLLNNFYPREAKVQWKVDNALQSGNSQESVTEQDSKDSTYSLSSTLTLSKADYEKHKVYACEVTHQGLSSPVTKSFNRGEC | 0.3 | 1.3 | 1 | 0.8 | 0.7
3 | H240-Kn061/H240-Hl071 (F241N)/L73-k0 (antibody, human IgG1, kappa) heavy 1: QDQLVQSGAEVKKPGASVKVSCKASGFNIKDTYIQWVRQAPGQGLEWMGRIDPLRKQTKYREKFEGRVTITADTSTNTAYMELSSLRSEDTAVYYCVRSGREFDYWGQGTLVTVSSASTKGPSVFPLAPSSKSTSGGTAALGCLVKDYFPEPVTVSWNSGALTSGVHTFPAVLQSSGLYSLSSVVTVPSSSLGTQTYICNVNHKPSNTKVDKKVEPKSCDKTHTCPPCPAPEYYWGPSVFLFPPKPKDTLMISRTPEVTCVVVDVSDEDPEVKFNWYVDGVEVHNAKTKPREEQYNATYRVVSVLTVLHQDWLNGKEYKCKVSNKALPAPIEKTISKAKGQPREPQVCTLPPSRDELTKNQVSLWCLVKGFYPSDIAVEWESNGQPENNYKTTPPVLDSDGSFFLYSKLTVDKSRWQQGNVFSCSVMHEALHNHYTQKSLSLSP heavy 2: QDQLVQSGAEVKKPGASVKVSCKASGFNIKDTYIQWVRQAPGQGLEWMGRIDPLRKQTKYREKFEGRVTITADTSTNTAYMELSSLRSEDTAVYYCVRSGREFDYWGQGTLVTVSSASTKGPSVFPLAPSSKSTSGGTAALGCLVKDYFPEPVTVSWNSGALTSGVHTFPAVLQSSGLYSLSSVVTVPSSSLGTQTYICNVNHKPSNTKVDKKVEPKSCDKTHTCPPCPAPELLGGPSVNLFPPKPKDTLMISRTPEVTCVVVDVSHEDPEVKFNWYVDGVEVHNAKTKPREEQYNSTYRVVSVLTVLHQDWLNGKEYKCKVSNDALPMPIEETISKAKGQPREPQVYTLPPSRCELTKNQVSLSCAVKGFYPSDIAVEWESNGQPENNYKTTPPVLDSDGSFFLVSKLTVDKSRWQQGNVFSCSVMHEALHNHYTQKSLSLSP light: DIQMTQSPSSLSASVGDRVTITCRASQDIHKYIAWYQQKPGQAPRLLIQYTSTLQPGVPSRFSGSGSGTDYTFTISSLQPEDIATYYCLQYEQLRTFGGGTKVEIKRTVAAPSVFIFPPSDEQLKSGTASVVCLLNNFYPREAKVQWKVDNALQSGNSQESVTEQDSKDSTYSLSSTLTLSKADYEKHKVYACEVTHQGLSSPVTKSFNRGEC | 1.1 | 0.8 | 0.7 | 3.5 | 3.8
